Test results reported in patent publication US20250018014A1, “METHOD FOR TREATING AND/OR PREVENTING REGNASE-1-RELATED DISEASE” (OSAKA UNIVERSITY, priority 2018, published 2025).
No end group written: not given here.

T1: Peptide 2 (AFPPREYWSEPYPLPPPTC-NH2), biotin-conjugated (human, also: biotin-conjugated, position not given here)
T1 peptide: AFPPREYWSEPYPLPPPTC-NH2

T2: Regnase-1 phosphorylation by TBK1 (Homo sapiens, UniProt Q5D1E8)
T2 construct: GST (N, cleaved yes); made in house; host or cells: Expi293 cells
T2 sequence (Q5D1E8 1-599): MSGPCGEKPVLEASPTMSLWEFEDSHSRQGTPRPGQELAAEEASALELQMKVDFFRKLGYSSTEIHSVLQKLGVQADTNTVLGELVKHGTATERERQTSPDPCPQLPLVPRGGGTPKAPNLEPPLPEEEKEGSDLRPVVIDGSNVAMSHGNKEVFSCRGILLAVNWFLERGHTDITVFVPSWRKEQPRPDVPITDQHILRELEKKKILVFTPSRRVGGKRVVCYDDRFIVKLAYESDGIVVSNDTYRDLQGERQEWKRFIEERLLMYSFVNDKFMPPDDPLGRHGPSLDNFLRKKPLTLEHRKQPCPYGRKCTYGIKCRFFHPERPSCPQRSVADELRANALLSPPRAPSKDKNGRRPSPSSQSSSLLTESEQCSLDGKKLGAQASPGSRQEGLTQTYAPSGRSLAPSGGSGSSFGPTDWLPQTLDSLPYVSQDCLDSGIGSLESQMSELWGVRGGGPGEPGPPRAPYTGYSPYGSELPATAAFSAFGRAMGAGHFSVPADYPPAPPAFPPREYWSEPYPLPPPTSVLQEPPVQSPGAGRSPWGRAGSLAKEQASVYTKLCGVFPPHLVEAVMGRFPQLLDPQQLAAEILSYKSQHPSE

T3: FL_Reg1 (human full-length Regnase-1) (Homo sapiens, UniProt Q5D1E8)
T3 construct: made in house; host or cells: Expi293 cells
T3 sequence (Q5D1E8 1-599): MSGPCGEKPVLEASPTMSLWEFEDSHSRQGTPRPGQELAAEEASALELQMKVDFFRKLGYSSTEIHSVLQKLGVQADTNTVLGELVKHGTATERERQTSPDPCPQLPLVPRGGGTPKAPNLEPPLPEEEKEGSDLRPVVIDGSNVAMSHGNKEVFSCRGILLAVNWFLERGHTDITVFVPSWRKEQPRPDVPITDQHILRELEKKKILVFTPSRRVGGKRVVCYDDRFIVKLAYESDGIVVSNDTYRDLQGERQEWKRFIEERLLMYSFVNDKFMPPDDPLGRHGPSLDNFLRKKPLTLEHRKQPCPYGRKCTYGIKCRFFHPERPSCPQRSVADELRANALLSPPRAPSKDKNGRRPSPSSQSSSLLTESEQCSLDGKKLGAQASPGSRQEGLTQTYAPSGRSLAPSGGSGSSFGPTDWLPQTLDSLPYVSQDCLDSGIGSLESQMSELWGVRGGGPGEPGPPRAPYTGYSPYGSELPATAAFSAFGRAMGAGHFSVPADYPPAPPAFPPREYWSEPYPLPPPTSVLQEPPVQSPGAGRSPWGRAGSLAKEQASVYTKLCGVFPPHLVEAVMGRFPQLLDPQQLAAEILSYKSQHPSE


How the values were obtained:
[1] = molecular target: T1, Peptide 2 (AFPPREYWSEPYPLPPPTC-NH2), …; assay: flow cytometry of streptavidin beads carrying the biotinylated antigen, anti-rabbit IgG Alexa488
Method: (§1) These beads were mixed with each anti-Regnase-1 antibody, and they were allowed to react. Thereafter, Anti-Rabbit IgG1 Alexa488 (molecular probes, A21244) was mixed and reacted, and analysis was performed with iQue screener PLUS (intellicyt). Data was analyzed with FlowJo ver10.

[2] = molecular target: T2, Regnase-1 phosphorylation by TBK1; assay: Inhibitory activity of anti-Regnase-1 antibodies against Regnase-1 phosphorylation by TBK1 (Phos-tag gel, western blotting); assay type: biochemical; conditions: antibody at final concentrations of 16.7 μg/mL and 5.0 μg/mL; relative to Control group
Method: To a solution (ATP buffer) containing Kinase Assay Buffer III (manufactured by SignalChem) supplemented with 2 mM DTT, 100 μM sodium vanadate, 2 mM manganese chloride, and 15 μM ATP, dephosphorylated Regnase-1 was mixed at 150 nM. Four microliters of this solution and 4 μL of HEPES Buffered Saline containing 50 μg/mL or 15 μg/mL of anti-Regnase-1 antibody were mixed, and this was allowed to react for one hour. This reaction solution was mixed with 4 μL of ATP buffer containing 150 nM of each kinase (IKKβ or TBK1), and further reacted for one hour. After the reaction, 4 μL of 4× Laemmli Sample buffer (manufactured by Bio-Rad) was added and this mixture was incubated at 95° C. for five minutes for protein denaturation treatment. This sample was ice-cooled for three minutes, and 10 μL of it was added to SuperSep Phos-tag 7.5% 17 wells (manufactured by Wako) placed in EasySeparator (manufactured by Wako). As a marker, 10 μL of WIDE-VIEW Prestained Protein Size Marker III (manufactured by Wako) was added, and the EasySeparator was filled with Tris-Glycine SDS buffer (manufactured by Takara). After electrophoresis at 175 V for 70 minutes, this was washed with 10% Tris-Glycine SDS buffer containing 5 mM EDTA and 20% MeOH for 10 minutes. After two further washings, washing was performed with 10% Tris-Glycine SDS buffer containing 20% MeOH for ten minutes. The washed gel was placed in the Trans-Blot Turbo Transfer Pack (manufactured by Bio-Rad), and transferred using the BioRad Transfer Turbo (manufactured by Bio-Rad). […] Chemiluminescence was detected using ImageQuant LAS4000 mini (manufactured by GE Healthcare).
A band for phosphorylated Regnase-1 was detected due to treatment with each kinase (FIG. 33A). Band densities were measured with Image Quant-TL (manufactured by GE Healthcare). The relative value for the band density of the sample to which each compound was added was calculated, considering the band density of the kinase-added sample of the Control group, to which no compound was added, as 1. […]

[3] = molecular target: T4, Peptide 2 ([…]-NH2), partial peptide of human Regnase-1 (Homo sapiens, UniProt Q5D1E8); assay: Binding of anti-non-phosphorylated Regnase-1 peptide antibodies to bead-bound Peptide 2 (iQue screener); conditions: streptavidin-immobilized beads; histograms FIG. 32
T4 construct: made in house; host or cells: chemical synthesis
Method: (§2) • Biotin-Conjugated FL_Reg1, Biotin-Conjugated Peptide • […], biotin-conjugated peptide • AFPPREYWSEPYPLPPPTC-NH2, and biotinylated BSA (Sigma, A8549) were each bound to streptavidin-immobilized beads.
as §1

[4] = molecular target: T3, FL_Reg1 (human full-length Regnase-1); assay: Binding of anti-non-phosphorylated Regnase-1 peptide antibodies to bead-bound full length human Regnase-1 (iQue screener); conditions: streptavidin-immobilized beads; histograms FIG. 32
Method: as §2, §1

| Molecule | binding result [1] | density of the phosphorylated Regnase-1 band in TBK1 treatment [2] | binding to Peptide 2 compared with biotinylated BSA [3] | binding to FL_Reg1 compared with biotinylated BSA [4] |
| --- | --- | --- | --- | --- |
| REB0014 (antibody, V domains shown, Cloned from immunized rabbits, expressed in HEK293 cells, purified by Protein A; also called anti-Regnase-1 antibody; anti-non-phosphorylated Regnase-1 peptide antibody) VH: QSLEESGGGLVKPGGTLTLTCKASGIDFSSYYYMCWVRQAPGKGLEWIACIYSGDGSSYYVSWANGRFTISKTSSATVTLQMTSLTAADTATYFCARDLGNLWGPGTLVTVSS VL: QVLTQTPASVSAAVGGTVTINCQASQSVYKNSGLSWFQQKPGQSPKRLIYSASTLDSGVPSRFKGSGSGTQFTLTISDVQCDDAATYYCLGIYVCSSVDCGAFGGGTEVVVKG | binds | – | – | – |
| REB0007 (antibody, V domains shown, Cloned from immunized rabbits, expressed in HEK293 cells, purified by Protein A; also called anti-Regnase-1 antibody; anti-non-phosphorylated Regnase-1 peptide antibody) VH: QEQLEESGGDLVKPEGSLTLTCTASGFSFNSRYWICWVRQAPGKGLEWIGCIVSGDSNTYYASWAKGRFTISKTSSTTVTLQMTSLTAADTATYFCARWYTSSRPGLWGPGTLVTVSS VL: DVVMTQTPASVSEPVGGTVTIKCQASQSISSYLSWYQQKPGQPPKLLIYSATNLASGVSSRFKGSRFGTEFTLTISDLECDDAATYYCQCSYYVSGFAFGGGTEVVVKG | binds | – | – | – |
| REB0022 (antibody, V domains shown, Cloned from immunized rabbits, expressed in HEK293 cells, purified by Protein A; also called anti-Regnase-1 antibody; anti-non-phosphorylated Regnase-1 peptide antibody) VH: QEQLEESGGDLVKPEGSLTLTCTASGGSFSSRYWMCWVRQAPGKGLEWIACIVIGDRNNYYASWAKGRFTISKTSSTTVTLQMTSLTAADTATYFCARWHSSTAPSLWGPGTLVTVSS VL: DVVMTQTPASVSEPVGGTVTINCQASQSISSYLSWYQQKPGQPPKLLIYKASTLASGVSSRFKGSGSGTEFTLTISDLECADAATYYCQCSYYVSGFVFGGGTEVVVKG | binds | – | – | – |
| REB0007: anti-Regnase-1 antibody; heavy chain SEQ ID NO: 24, light chain SEQ ID NO: 25 (antibody) heavy: QEQLEESGGDLVKPEGSLTLTCTASGFSFNSRYWICWVRQAPGKGLEWIGCIVSGDSNTYYASWAKGRFTISKTSSTTVTLQMTSLTAADTATYFCARWYTSSRPGLWGPGTLVTVSSGQPKAPSVFPLAPCCGDTPSSTVTLGCLVKGYLPEPVTVTWNSGTLTNGVRTFPSVRQSSGLYSLSSVVSVTSSSQPVTCNVAHPATNTKVDKTVAPSTCSKPTCPPPELLGGPSVFIFPPKPKDTLMISRTPEVTCVVVDVSQDDPEVQFTWYINNEQVRTARPPLREQQFNSTIRVVSTLPITHQDWLRGKEFKCKVHNKALPAPIEKTISKARGQPLEPKVYTMGPPREELSSRSVSLTCMINGFYPSDISVEWEKNGKAEDNYKTTPAVLDSDGSYFLYNKLSVPTSEWQRGDVFTCSVMHEALHNHYTQKSISRSPGK light: DVVMTQTPASVSEPVGGTVTIKCQASQSISSYLSWYQQKPGQPPKLLIYSATNLASGVSSRFKGSRFGTEFTLTISDLECDDAATYYCQCSYYVSGFAFGGGTEVVVKGDPVAPTVLIFPPAADQVATGTVTIVCVANKYFPDVTVTWEVDGTTQTTGIENSKTPQNSADCTYNLSSTLTLTSTQYNSHKEYTCKVTQGTTSVVQSFNRGD | – | decreased | bound more strongly | bound more strongly |
| REB0022: anti-Regnase-1 antibody; heavy chain SEQ ID NO: 28, light chain SEQ ID NO: 29 (antibody) heavy: QEQLEESGGDLVKPEGSLTLTCTASGGSFSSRYWMCWVRQAPGKGLEWIACIVIGDRNNYYASWAKGRFTISKTSSTTVTLQMTSLTAADTATYFCARWHSSTAPSLWGPGTLVTVSSGQPKAPSVFPLAPCCGDTPSSTVTLGCLVKGYLPEPVTVTWNSGTLTNGVRTFPSVRQSSGLYSLSSVVSVTSSSQPVTCNVAHPATNTKVDKTVAPSTCSKPTCPPPELLGGPSVFIFPPKPKDTLMISRTPEVTCVVVDVSQDDPEVQFTWYINNEQVRTARPPLREQQFNSTIRVVSTLPITHQDWLRGKEFKCKVHNKALPAPIEKTISKARGQPLEPKVYTMGPPREELSSRSVSLTCMINGFYPSDISVEWEKNGKAEDNYKTTPAVLDSDGSYFLYNKLSVPTSEWQRGDVFTCSVMHEALHNHYTQKSISRSPGK light: DVVMTQTPASVSEPVGGTVTINCQASQSISSYLSWYQQKPGQPPKLLIYKASTLASGVSSRFKGSGSGTEFTLTISDLECADAATYYCQCSYYVSGFVFGGGTEVVVKGDPVAPTVLIFPPAADQVATGTVTIVCVANKYFPDVTVTWEVDGTTQTTGIENSKTPQNSADCTYNLSSTLTLTSTQYNSHKEYTCKVTQGTTSVVQSFNRGDC | – | decreased | bound more strongly | bound more strongly |
| REB0014: anti-Regnase-1 antibody; heavy chain SEQ ID NO: 26, light chain SEQ ID NO: 27 (antibody) heavy: QSLEESGGGLVKPGGTLTLTCKASGIDFSSYYYMCWVRQAPGKGLEWIACIYSGDGSSYYVSWANGRFTISKTSSATVTLQMTSLTAADTATYFCARDLGNLWGPGTLVTVSSGQPKAPSVFPLAPCCGDTPSSTVTLGCLVKGYLPEPVTVTWNSGTLTNGVRTFPSVRQSSGLYSLSSVVSVTSSSQPVTCNVAHPATNTKVDKTVAPSTCSKPTCPPPELLGGPSVFIFPPKPKDTLMISRTPEVTCVVVDVSQDDPEVQFTWYINNEQVRTARPPLREQQFNSTIRVVSTLPITHQDWLRGKEFKCKVHNKALPAPIEKTISKARGQPLEPKVYTMGPPREELSSRSVSLTCMINGFYPSDISVEWEKNGKAEDNYKTTPAVLDSDGSYFLYNKLSVPTSEWQRGDVFTCSVMHEALHNHYTQKSISRSPGK light: QVLTQTPASVSAAVGGTVTINCQASQSVYKNSGLSWFQQKPGQSPKRLIYSASTLDSGVPSRFKGSGSGTQFTLTISDVQCDDAATYYCLGIYVCSSVDCGAFGGGTEVVVKGDPVAPTVLIFPPAADQVATGTVTIVCVANKYFPDVTVTWEVDGTTQTTGIENSKTPQNSADCTYNLSSTLTLTSTQYNSHKEYTCKVTQGTTSVVQSFNRGDC | – | decreased | bound more strongly | bound more strongly |
